Assay results reported in paper PMC4145081 (2014).

How the values were obtained:
[1] = biological target: human SCARB2 on 293A-hSCARB2 cells pretreated with PNGase F (human) (UniProt Q14108)
[2] = biological target: human SCARB2 on 293A-hSCARB2 cells pretreated with PNGase F (human) (UniProt Q14108); test: flow cytometry on cells; binding of EV71 to 293A-hSCARB2 cells pretreated with or without PNGase F; details in the Extended Experimental Procedures
[3] = biological target: EV71 mature virions (human enterovirus 71 (EV71))
[4] = biological target: EV71 mature virions (human enterovirus 71 (EV71)); remark: listed apart in the source
[5] = biological target: T1, EV71 mature virions (human enterovirus 71 (EV71)); test: ITC
T1 chain 1: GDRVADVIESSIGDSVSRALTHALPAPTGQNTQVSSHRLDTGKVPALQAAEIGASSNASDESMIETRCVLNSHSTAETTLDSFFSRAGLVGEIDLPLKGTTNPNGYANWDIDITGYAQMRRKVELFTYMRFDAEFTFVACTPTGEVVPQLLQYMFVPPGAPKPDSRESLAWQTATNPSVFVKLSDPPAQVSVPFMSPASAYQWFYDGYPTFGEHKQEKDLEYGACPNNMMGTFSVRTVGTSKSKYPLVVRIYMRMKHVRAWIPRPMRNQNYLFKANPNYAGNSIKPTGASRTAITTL
T1 chain 2: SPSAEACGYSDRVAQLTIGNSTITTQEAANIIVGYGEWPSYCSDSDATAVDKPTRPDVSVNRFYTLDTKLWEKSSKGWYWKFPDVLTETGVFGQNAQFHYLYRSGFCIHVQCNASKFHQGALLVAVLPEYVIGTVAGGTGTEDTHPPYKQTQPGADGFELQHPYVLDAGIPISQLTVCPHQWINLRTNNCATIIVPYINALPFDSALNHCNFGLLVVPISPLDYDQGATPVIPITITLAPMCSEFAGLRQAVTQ
T1 chain 3: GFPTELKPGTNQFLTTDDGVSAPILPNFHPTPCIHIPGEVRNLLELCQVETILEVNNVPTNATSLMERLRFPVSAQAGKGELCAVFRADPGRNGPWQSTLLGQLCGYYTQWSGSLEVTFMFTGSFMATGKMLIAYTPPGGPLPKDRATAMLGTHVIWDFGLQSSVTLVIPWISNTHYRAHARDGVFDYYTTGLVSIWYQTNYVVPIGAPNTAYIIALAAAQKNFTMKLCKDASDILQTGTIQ
T1 chain 4: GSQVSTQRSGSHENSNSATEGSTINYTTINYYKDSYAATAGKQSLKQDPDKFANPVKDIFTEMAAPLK

Chain of human SCARB2 on 293A-hSCARB2 cells pretreated with PNGase F (human) (Q14108 whole entry): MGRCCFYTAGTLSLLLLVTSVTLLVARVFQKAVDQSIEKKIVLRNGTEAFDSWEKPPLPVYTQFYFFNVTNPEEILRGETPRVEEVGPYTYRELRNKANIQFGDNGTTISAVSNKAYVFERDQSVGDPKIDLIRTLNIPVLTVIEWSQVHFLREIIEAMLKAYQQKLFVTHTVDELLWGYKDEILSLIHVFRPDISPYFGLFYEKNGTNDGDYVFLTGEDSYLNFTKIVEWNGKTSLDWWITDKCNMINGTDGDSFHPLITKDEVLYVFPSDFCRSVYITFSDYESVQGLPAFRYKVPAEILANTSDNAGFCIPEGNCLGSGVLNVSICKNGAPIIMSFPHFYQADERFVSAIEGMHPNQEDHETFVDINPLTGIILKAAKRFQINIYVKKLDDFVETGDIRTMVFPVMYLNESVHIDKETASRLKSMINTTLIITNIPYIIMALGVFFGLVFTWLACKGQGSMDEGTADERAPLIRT

EV71 mature virions (complex) was tested, and the decrease in infection efficiency of EV71-GFP on 293A-hSCARB2 cells pretreated with PNGase F, against untreated cells (GFP-positive cells 16 h post infection) [1] was 40% and the reduction of binding against untreated cells [2] was 30%.

“recombinant SCARB2-His-tag protein (ectodomain of scavenger receptor class B 2)” showed a [3H]-labeled sphingosine removed from EV71 mature virions by excess recombinant SCARB2 (60:1) at pH 5.0, 37°C, 1-4 h [3] of 90% and a conversion of mature virions (~160 S) into ~125 S particles (A particles) by sedimentation velocity AUC after 1 h at 37°C with SCARB2 at pH 7.4 [4] of 5%.

B1: synthesized peptide of SCARB2 (aa 146-166) (peptide)
peptide: WSQVHFLREIIEAMLKAYQQK
In the case of B1, the Kd [5] is reported as 4.2 µM.
